Measurements from article PMC2893164, “Structural Basis of Gate-DNA Breakage and Resealing by Type II Topoisomerases” (PLoS ONE, 2010).

B1: S. pneumoniae ParE TOPRIM domain (ParE30, residues 404-647) (domain or fragment, Streptococcus pneumoniae, UniProt Q59961 404-647, looked up)
chain: KNKKDKGLLSGKLTPAQSKNPAKNELYLVEGDSAGGSAKQGRDRKFQAILPLRGKVVNTAKAKMADILKNEEINTMIYTIGAGVGADFSIEDANYDKIIIMTDADTDGAHIQTLLLTFFYRYMRPLVEAGHVYIALPPLYKMSKGKGKKEEVAYAWTDGELEELRKQFGKGATLQRYKGLGEMNADQLWETTMNPETRTLIRVTIEDLARAERRVNVLMGDKVEPRRKWIEDNVKFTLEETTVF
notes: Topoisomerase IV subunit ParE, Streptococcus pneumoniae, TOPRIM domain, residues 404-647; also called topoisomerase IV subunit ParE; source: E. coli, over-expressed, purified as described previously
B2: S. pneumoniae ParC breakage-reunion domain (ParC55, residues 1-488) (domain or fragment, Streptococcus pneumoniae, UniProt P72525 1-488, looked up)
chain: MSNIQNMSLEDIMGERFGRYSKYIIQDRALPDIRDGLKPVQRRILYSMNKDSNTFDKSYRKSAKSVGNIMGNFHPHGDSSIYDAMVRMSQNWKNREILVEMHGNNGSMDGDPPAAMRYTEARLSEIAGYLLQDIEKKTVPFAWNFDDTEKEPTVLPAAFPNLLVNGSTGISAGYATDIPPHNLAEVIDAAVYMIDHPTAKIDKLMEFLPGPDFPTGAIIQGRDEIKKAYETGKGRVVVRSKTEIEKLKGGKEQIVIIEIPYEINKANLVKKIDDVRVNNKVAGIAEVRDESDRDGLRIAIELKKDANTELVLNYLFKYTDLQINYNFNMVAIDNFTPRQVGIVPILSSYIAHRREVILARSRFDKEKAEKRLHIVEGLIRVISILDEVIALIRASENKADAKENLKVSYDFTEEQAEAIVTLQLYRLTNTDVVVLQEEEAELREKIAMLAAIIGDERTMYNLMKKELREVKKKFATPRLSSLEDTAKA
modifications: Tyr 118 linked covalently to the 5' phosphate end of the cleaved DNA (in the cleaved complexes; not in the resealed complex)
notes: Topoisomerase IV subunit ParC, Streptococcus pneumoniae, breakage-reunion domain, residues 1-488; also called topoisomerase IV subunit ParC; source: E. coli, over-expressed, purified as described previously

What was measured:
[1] = target: B2; assay: crystal structure; ParC55 and ParE30 (equimolar, 4 mg/ml) co-crystallised with the 34-bp E-site DNA (1:1:1.2) and quinazolinedione PD 0305970, 20 mM MgCl2, pH 7.0; 3.1 A; the same crystals back-soaked and soaked with levofloxacin (2.9 A), EDTA (3.3 A) or EDTA then Mg2+ (3.5 A); conditions: both partners purified
[2] = target: the molecule itself; assay: as above

Row | Binder | binding result [1] | stoichiometry N [2]
1 | B1 | binds | –
2 | B2 | – | 2
